According to PMC2831308:

Test system: carboxyltransferase (CT) alpha2beta2, wild-type (Escherichia coli)
Assay: EMSA

CT alpha transcript, 213 nt upstream of AUG to gene end
Kd: 0.145 µM
